Reference: PMC10992996

Biological target: Human canonical CRB1 (Crumbs homolog 1) (UniProt P82279)
Test: co-IP (FLAG-IP) and Western blot quantification
Conditions: co-transfected in HEK293T cells; three biological replicates; parent: est. 1.0; read off a plot

Chain of Human canonical CRB1 (Crumbs homolog 1) (P82279 26-1406): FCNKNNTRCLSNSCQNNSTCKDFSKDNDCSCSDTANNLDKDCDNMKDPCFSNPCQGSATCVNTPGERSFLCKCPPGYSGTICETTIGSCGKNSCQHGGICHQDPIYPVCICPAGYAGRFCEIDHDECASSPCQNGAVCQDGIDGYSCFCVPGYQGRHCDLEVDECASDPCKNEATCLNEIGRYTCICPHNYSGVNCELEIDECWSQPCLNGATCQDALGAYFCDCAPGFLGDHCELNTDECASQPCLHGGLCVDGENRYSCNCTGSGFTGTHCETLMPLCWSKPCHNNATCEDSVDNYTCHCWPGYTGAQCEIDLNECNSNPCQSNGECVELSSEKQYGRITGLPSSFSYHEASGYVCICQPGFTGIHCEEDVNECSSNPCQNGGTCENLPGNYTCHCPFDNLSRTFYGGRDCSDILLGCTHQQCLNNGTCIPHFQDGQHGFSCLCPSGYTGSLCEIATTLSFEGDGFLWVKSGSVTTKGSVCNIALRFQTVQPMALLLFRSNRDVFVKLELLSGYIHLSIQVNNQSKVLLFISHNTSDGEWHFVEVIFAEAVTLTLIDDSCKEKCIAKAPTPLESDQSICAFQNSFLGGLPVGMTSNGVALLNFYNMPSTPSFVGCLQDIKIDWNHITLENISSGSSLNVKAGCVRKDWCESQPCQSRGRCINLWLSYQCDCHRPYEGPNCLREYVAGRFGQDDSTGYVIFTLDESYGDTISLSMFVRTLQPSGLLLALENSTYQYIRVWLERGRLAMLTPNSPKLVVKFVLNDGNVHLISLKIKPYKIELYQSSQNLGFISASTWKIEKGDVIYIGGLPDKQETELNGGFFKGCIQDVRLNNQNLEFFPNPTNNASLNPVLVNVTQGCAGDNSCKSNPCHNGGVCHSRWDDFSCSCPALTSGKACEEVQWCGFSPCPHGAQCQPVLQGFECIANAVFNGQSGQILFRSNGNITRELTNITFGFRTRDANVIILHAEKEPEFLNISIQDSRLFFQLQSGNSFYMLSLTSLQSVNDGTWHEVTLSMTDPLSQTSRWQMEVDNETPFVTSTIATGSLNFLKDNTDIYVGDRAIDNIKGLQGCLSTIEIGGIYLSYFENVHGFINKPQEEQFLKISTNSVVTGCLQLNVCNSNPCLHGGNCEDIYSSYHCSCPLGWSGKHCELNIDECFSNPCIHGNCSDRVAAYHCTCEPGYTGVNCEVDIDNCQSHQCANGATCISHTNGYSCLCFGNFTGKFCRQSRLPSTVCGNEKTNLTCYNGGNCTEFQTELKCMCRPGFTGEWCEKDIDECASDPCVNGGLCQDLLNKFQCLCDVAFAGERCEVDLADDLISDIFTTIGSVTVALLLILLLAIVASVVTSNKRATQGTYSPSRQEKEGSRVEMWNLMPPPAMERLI

| Substance | ratio to parent |
| --- | --- |
| Human canonical CRB2 (Crumbs homolog 2) (from UniProt Q5IJ48-1) p.N800K | 1.1 |
| Human canonical CRB2 (Crumbs homolog 2) (from UniProt Q5IJ48-1) p.R633W | 0.9 |
| Human canonical CRB2 (Crumbs homolog 2) (from UniProt Q5IJ48-1) p.R1115C | 1 |
| Human canonical CRB2 (Crumbs homolog 2) (from UniProt Q5IJ48-1) p.C1129S | 1.2 |
| Human canonical CRB2 (Crumbs homolog 2) (from UniProt Q5IJ48-1) p.G839W | 0.94 |
| Human canonical CRB2 (Crumbs homolog 2) (from UniProt Q5IJ48-1) p.L777H | 1.1 |
| Human canonical CRB2 (Crumbs homolog 2) (from UniProt Q5IJ48-1) p.C629S | 1.1 |
| Human canonical CRB2 (Crumbs homolog 2) (from UniProt Q5IJ48-1) p.C620S | 1.1 |
| Human canonical CRB2 (Crumbs homolog 2) (from UniProt Q5IJ48-1) p.W498C | 1.1 |
| Human canonical CRB2 (Crumbs homolog 2) (from UniProt Q5IJ48-1) p.R628C | 0.97 |
